This is an account of results in US20250032576A1, “CNP Therapy” (BIOMARIN PHARMACEUTICAL INC., priority 2021, published 2025).

“And” between values parts separate entries of the source, which are not always exact repeats. Equal entries are not always repeated. No end group written: not given here.

Experiment [1] concerns the target NPR2 variant Ala48Ser (human) (UniProt P20594). Kind of experiment: cell-based or functional assay.
The target in experiment [2] is NPR2 variant Glu727Gln (human) (UniProt P20594). Kind of experiment: cell-based or functional assay.
For experiment [3], the target named is NPR2 variant Trp42Arg (human) (UniProt P20594). Put plainly: cell-based or functional assay.
Experiment [4] has as its target NPR2 variant Lys629Arg (human) (UniProt P20594). Kind of experiment: cell-based or functional assay.
Experiment [5] concerns the target NPR2 variant Lys367Glu (human) (UniProt P20594). Kind of experiment: cell-based or functional assay.
Experiment [6] concerns the target NPR2 variant Arg562Gln (human) (UniProt P20594). Put plainly: cell-based or functional assay.
Experiment [7] concerns the target NPR2 variant Leu956Gln (human) (UniProt P20594). Kind of experiment: cell-based or functional assay.
In experiment [8] the target is NPR2 variant Thr297Met (human) (UniProt P20594). Put plainly: cell-based or functional assay.
The target in experiment [9] is NPR2 variant Ala59Thr (human) (UniProt P20594). Kind of experiment: cell-based or functional assay.
Experiment [10] concerns the target NPR2 variant Gly209Val (human) (UniProt P20594). Put plainly: cell-based or functional assay.
Experiment [11] deals with NPR2 variant Pro301Ser (human) (UniProt P20594). Kind of experiment: cell-based or functional assay.
Experiment [12] deals with NPR2 variant Gly21Arg (human) (UniProt P20594). Put plainly: cell-based or functional assay.
For experiment [13], the target named is NPR2 variant Lys480Asn (human) (UniProt P20594). Kind of experiment: cell-based or functional assay.
Experiment [14] deals with NPR2 variant Ile494Ser (human) (UniProt P20594). Put plainly: cell-based or functional assay.
Experiment [15] concerns the target NPR2 variant Glu77Lys (human) (UniProt P20594). Put plainly: cell-based or functional assay.
Experiment [16] deals with NPR2 variant Glu359Ala (human) (UniProt P20594). Put plainly: cell-based or functional assay.
The target of experiment [17] is NPR2 variant Val965Asp (human) (UniProt P20594). Put plainly: cell-based or functional assay.
For experiment [18], the target named is NPR2 variant Lys1006Thr (human) (UniProt P20594). Kind of experiment: cell-based or functional assay.
The target of experiment [19] is NPR2 variant Glu389Asp (human) (UniProt P20594). Put plainly: cell-based or functional assay.
Experiment [20] deals with NPR2 variant Thr907Met (human) (UniProt P20594). Kind of experiment: cell-based or functional assay.
Experiment [21] concerns the target NPR2 variant Arg776Trp (human) (UniProt P20594). Kind of experiment: cell-based or functional assay.
Experiment [22] deals with NPR2 variant Ser522Pro (human) (UniProt P20594). Put plainly: cell-based or functional assay.
Experiment [23] has as its target NPR2 variant Leu1009Val (human) (UniProt P20594). Put plainly: cell-based or functional assay.
Experiment [24] addresses NPR2 variant Arg957Cys (human) (UniProt P20594). Put plainly: cell-based or functional assay.
Experiment [25] deals with NPR2 variant His552Arg (human) (UniProt P20594). Kind of experiment: cell-based or functional assay.
The target in experiment [26] is NPR2 variant Thr377Asn (human) (UniProt P20594). Put plainly: cell-based or functional assay.
Experiment [27] deals with NPR2 variant Arg263His (human) (UniProt P20594). Put plainly: cell-based or functional assay.
In experiment [28] the target is NPR2 variant HIS508Asp (human) (UniProt P20594). Kind of experiment: cell-based or functional assay.
In experiment [29] the target is NPR2 variant Arg601Ser (human) (UniProt P20594). Put plainly: cell-based or functional assay.
The target of experiment [30] is NPR2 variant Gly917Arg (human) (UniProt P20594). Kind of experiment: cell-based or functional assay.
For experiment [31], the target named is NPR2 variant Val553Leu (human) (UniProt P20594). Kind of experiment: cell-based or functional assay.
Experiment [32] concerns mouse model of Cardiofaciocutaneous syndrome using a Braf mutation (p.Q241R). The following applies: in vivo; cited from earlier work.
For experiment [33], the system named is mice deficient in Nf1 in type II collagen producing cells. Particulars: daily injections; cited from earlier work.

As to “C-type natriuretic peptide (CNP) (from UniProt P23582 105-126) (ligand)”, the average phenotype (cGMP, normalized to RedLuciferase, WT set to 1) (relative to WT = 1) in experiment [1] was 0.0679; in experiment [2], 1.7; in experiment [3], 0.0288; in experiment [4] it was 1.49; in experiment [5], 0.0144; in [6] it was 1.55 and 1.63. For the same substance, the average phenotype (cGMP, normalized to RedLuciferase, WT set to 1) (relative to WT = 1) came out at 0.0243 in experiment [7]; 0.0302 in experiment [8]; 3.74 in experiment [9]; 0.0886 in experiment [10]; 0.0848 in [11]; 2.78 in experiment [12]. In addition, the average phenotype (cGMP, normalized to RedLuciferase, WT set to 1) (relative to WT = 1) in experiment [13] turned out to be 1.69; in [14], 0.0364; in [15] it was 0.0499; in experiment [16] it was 3; in [17], 0.0158; in [18], 0.0551. Further, the average phenotype (cGMP, normalized to RedLuciferase, WT set to 1) (relative to WT = 1) in experiment [19] is 0.0708; in [20], 0.0146; in [21], 0.0131; in [22] it was 0.0567; in experiment [23], 0.0847; in experiment [24], 0.0295 and 0.0155. For the same substance, the average phenotype (cGMP, normalized to RedLuciferase, WT set to 1) (relative to WT = 1) stood at 1.79 in experiment [25]; 0.0106 in [26]; 1.86 in experiment [27]; 1.74 in experiment [28]; 0.0595 in experiment [29]; 0.0171 in experiment [30]. The average phenotype (cGMP, normalized to RedLuciferase, WT set to 1) (relative to WT = 1) in [31] was 1.52.
For the substance “C-type natriuretic peptide (GLSKGCFGLKLDRIGSMSGLGC; ends and bridges not checked; cysteine pairing not given here; UniProt P23582 105-126, looked up) [CNP, small, single chain peptide having a 17-amino acid loop structure at the C-terminal end]”, the body length result in experiment [32] is recorded as “increases in body length”. Also, in [33], the ERK phosphorylation result was “decreased ERK phosphorylation” and the short stature entry is reported as “corrected the short stature”.
